Laboratory results as given in article doi:10.1101/2025.08.22.671756.

Target: Drosophila melanogaster insulin receptor ectodomain (dmIR-ECD) (Drosophila melanogaster) (UniProt P09208)
Test: cryo-EM structure

Sequence of Drosophila insulin-like peptide 2 (DILP2), synthetic two-chain hormone with the A-chain starting at GlnA5 (ligand) (Q9VT51 27-137): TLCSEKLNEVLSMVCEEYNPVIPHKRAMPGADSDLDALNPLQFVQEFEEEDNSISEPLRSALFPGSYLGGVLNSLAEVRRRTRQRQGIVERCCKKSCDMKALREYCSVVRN
Sequence of Drosophila melanogaster insulin receptor ectodomain (dmIR-ECD) (Drosophila melanogaster) (P09208 291-1309): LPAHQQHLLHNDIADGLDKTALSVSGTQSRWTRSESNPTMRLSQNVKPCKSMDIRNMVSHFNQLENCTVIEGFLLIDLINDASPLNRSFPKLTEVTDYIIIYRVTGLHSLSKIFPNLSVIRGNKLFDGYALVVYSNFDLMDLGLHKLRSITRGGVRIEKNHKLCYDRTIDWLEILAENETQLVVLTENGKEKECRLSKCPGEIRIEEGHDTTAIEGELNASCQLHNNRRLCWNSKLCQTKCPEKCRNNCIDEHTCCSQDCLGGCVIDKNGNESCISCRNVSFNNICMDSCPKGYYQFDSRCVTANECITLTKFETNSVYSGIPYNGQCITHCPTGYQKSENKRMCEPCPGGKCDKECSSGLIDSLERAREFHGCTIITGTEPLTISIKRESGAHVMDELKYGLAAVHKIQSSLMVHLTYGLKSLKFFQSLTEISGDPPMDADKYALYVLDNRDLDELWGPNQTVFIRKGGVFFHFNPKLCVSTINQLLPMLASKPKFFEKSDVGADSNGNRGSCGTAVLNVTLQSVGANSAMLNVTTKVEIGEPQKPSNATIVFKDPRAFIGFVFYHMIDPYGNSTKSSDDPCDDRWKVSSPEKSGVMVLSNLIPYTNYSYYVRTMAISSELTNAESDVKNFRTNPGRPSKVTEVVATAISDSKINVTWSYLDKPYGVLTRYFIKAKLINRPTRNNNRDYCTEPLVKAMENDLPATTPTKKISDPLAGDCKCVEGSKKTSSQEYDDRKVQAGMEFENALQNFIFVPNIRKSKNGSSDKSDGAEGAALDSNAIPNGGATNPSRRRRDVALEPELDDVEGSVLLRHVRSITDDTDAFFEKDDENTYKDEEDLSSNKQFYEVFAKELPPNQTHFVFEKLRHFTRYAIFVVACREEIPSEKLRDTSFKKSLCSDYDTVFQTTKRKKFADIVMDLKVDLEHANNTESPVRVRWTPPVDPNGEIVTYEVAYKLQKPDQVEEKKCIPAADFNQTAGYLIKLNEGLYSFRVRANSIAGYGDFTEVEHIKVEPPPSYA

“Drosophila insulin-like peptide 2 (DILP2), synthetic two-chain hormone with the A-chain starting at GlnA5 (ligand)” gave a stoichiometry N (DILP2 per dmIR-ECD (conformer 1)) of 1 and a stoichiometry N (DILP2 per dmIR-ECD (conformer 2)) of 2.
